Measurements taken from US20190144529A1 (UCB, published 2019).
Blank lines part the entries; values can stand above or below the binder they belong to.

How the values were obtained:
mouse serum albumin [1] = target: T1, mouse serum albumin (mouse, UniProt P07724 25-608); assay: SPR, rabbit Fab
T1 construct: mature; Bought purified serum albumin; also called MSA; Mouse albumin

human serum albumin [2] = target: T2, human serum albumin (human, UniProt P02768 25-609); assay: SPR, rabbit Fab
T2 construct: mature; Bought purified serum albumin; also called HSA; Human albumin

rat serum albumin [3] = target: T3, rat serum albumin (rat, UniProt P02770 25-608); assay: FMAT, B cell supernatant
T3 construct: mature; Bought purified serum albumin; also called RSA; Rat albumin

human serum albumin [4] = target: T2, human serum albumin; assay: SPR, Fab captured; albumin taken as HSA
Procedure: (§1) Each assay cycle consisted of firstly capturing the antibody sample using a 1 min injection, before an association phase consisting of a 3 min injection of albumin, after which dissociation was monitored. After each cycle, the capture surface was regenerated with two 1 min injections of 40 mM HCl followed by 30 s of 5 mM NaOH. The flow rates used were 10 μl/min for capture, 30 μl/min for both the association and dissociation phases, and 10 μl/min for regeneration. A blank flow-cell was used for reference subtraction and buffer-blank injections were included to subtract instrument noise and drift.

mouse serum albumin [5] = target: T1, mouse serum albumin; assay: SPR, humanized IgG1
Procedure: (§2) For analysis at pH 7.0, 6.0, 5.5 and 5.0, a running buffer of 40 mM citric acid, 80 mM sodium phosphate 50 mM NaCl, 3 mM EDTA, 0.05% v/v P20 was used. The required pH was achieved by altering the ratio of citric acid to sodium phosphate. All experiments were performed at 25° C. The antibody samples were captured to the sensor chip surface using either a human F(ab′)₂-specific or human Fc-specific goat Fab (Jackson ImmunoResearch). Covalent immobilisation of the capture antibody was achieved by standard amine coupling chemistry to a level of 6000-7000 response units (RU).
as §1

human serum albumin [6] = target: T2, human serum albumin; assay: SPR, humanized IgG1
Procedure: as §2, §1

rat serum albumin [7] = target: T3, rat serum albumin; assay: SPR, humanized IgG1
Procedure: as §2, §1

human serum albumin [8] = target: T2, human serum albumin; assay: SPR, Fab captured; albumin taken as HSA; remark: listed apart in the source
Procedure: as §1

human serum albumin [9] = target: T2, human serum albumin; assay: SPR, Fab captured, HSA
Procedure: as §2, §1

mouse serum albumin [10] = target: T1, mouse serum albumin; assay: SPR, Fab captured, albumin titrated
Procedure: as §2, §1

human serum albumin [11] = target: T2, human serum albumin; assay: SPR, Fab captured, albumin titrated
Procedure: as §2, §1

human serum albumin [12] = target: T2, human serum albumin; assay: SPR, HSA
Procedure: as §2, §1

mouse serum albumin [13] = target: T1, mouse serum albumin; assay: SPR
Procedure: as §2, §1

B3: CA645 gL4gH46 Fab (Fab, V domains shown)
VH: EVQLLESGGGLVQPGGSLRLSCAVSGIDLSNYAINWVRQAPGKGLEWIGIIWASGTTFYATWAKGRFTISRDNSKNTVYLQMNSLRAEDTAVYYCARTYPGYSTAPYFDLWGQGTLVTVSS
VL: DIQMTQSPSSVSASVGDRVTITCQSSPSVWSNFLSWYQQKPGKAPKLLIYEASKLTSGVPSRFSGSGSGTDFTLTISSLQPEDFATYYCGGGYSSISDTTFGGGTKVEIK
notes: Fab: human gamma1 CH1, human kappa (Km3); Kabat numbering
Kd (human serum albumin [4]): 3.26 nM | koff (human serum albumin [4]): 0.000184 s⁻¹ | kon (human serum albumin [4]): 56400 M⁻¹ s⁻¹

B5: CA645 gL25gH5 Fab (Fab, V domains shown)
VH: EVQLLESGGGLVQPGGSLRLSCAVSGIDLSNYAINWVRQAPGKGLEWIGIIWASGTTFYATWAKGRFTISRDNSKNTVYLQMNSLRAEDTAVYYCARTVPGYSTAPYFDLWGQGTLVTVSS
VL: DIQMTQSPSSVSASVGDRVTITCQSSPSVWFNFLSWYQQKPGKAPKLLIYEASKLTSGVPSRFSGSGSGTDFTLTISSLQPEDFATYYCGGGYSSISDTTFGGGTKVEIK
notes: as for B3
Kd (human serum albumin [8]): 3.85 nM | koff (human serum albumin [8]): 0.000217 s⁻¹ | kon (human serum albumin [8]): 56200 M⁻¹ s⁻¹

B7: CA645 gL5gH5 Fab (Fab, V domains shown)
VH: EVQLLESGGGLVQPGGSLRLSCAVSGIDLSNYAINWVRQAPGKGLEWIGIIWASGTTFYATWAKGRFTISRDNSKNTVYLQMNSLRAEDTAVYYCARTVPGYSTAPYFDLWGQGTLVTVSS
VL: DIQMTQSPSSVSASVGDRVTITCQSSPSVASNFLSWYQQKPGKAPKLLIYEASKLTSGVPSRFSGSGSGTDFTLTISSLQPEDFATYYCGGGYSSISDTTFGGGTKVEIK
notes: as for B3
Kd (human serum albumin [9]): 453 nM | koff (human serum albumin [9]): 0.0571 s⁻¹ | kon (human serum albumin [9]): 126000 M⁻¹ s⁻¹ | Kd (mouse serum albumin [10]): 316 nM | koff (mouse serum albumin [10]): 0.0038 s⁻¹ | kon (mouse serum albumin [10]): 12000 M⁻¹ s⁻¹ | Kd (human serum albumin [11]): 254 nM | koff (human serum albumin [11]): 0.022 s⁻¹ | kon (human serum albumin [11]): 85000 M⁻¹ s⁻¹ | fold weaker affinity than gL4gH5 (human serum albumin [12]): 368 fold | fold weaker affinity for MSA than for HSA (mouse serum albumin [13]): 1.2 fold

B10: CA645 gL24gH5 Fab (Fab, V domains shown)
VH: EVQLLESGGGLVQPGGSLRLSCAVSGIDLSNYAINWVRQAPGKGLEWIGIIWASGTTFYATWAKGRFTISRDNSKNTVYLQMNSLRAEDTAVYYCARTVPGYSTAPYFDLWGQGTLVTVSS
VL: DIQMTQSPSSVSASVGDRVTITCQSSPSVWVNFLSWYQQKPGKAPKLLIYEASKLTSGVPSRFSGSGSGTDFTLTISSLQPEDFATYYCGGGYSSISDTTFGGGTKVEIK
notes: as for B3
Kd (human serum albumin [8]): 16.1 nM | koff (human serum albumin [8]): 0.000883 s⁻¹ | kon (human serum albumin [8]): 54700 M⁻¹ s⁻¹

B11: CA645 gL29gH5 Fab (Fab, V domains shown)
VH: EVQLLESGGGLVQPGGSLRLSCAVSGIDLSNYAINWVRQAPGKGLEWIGIIWASGTTFYATWAKGRFTISRDNSKNTVYLQMNSLRAEDTAVYYCARTVPGYSTAPYFDLWGQGTLVTVSS
VL: DIQMTQSPSSVSASVGDRVTITCQSSPSVWSNFLSWYQQKPGKAPKLLIYEASKLTSGVPSRFSGSGVGTDFTLTISSLQPEDFATYYCGGGYSSISDTTFGGGTKVEIK
notes: as for B3
Kd (human serum albumin [4]): 1.78 nM | koff (human serum albumin [4]): 0.000103 s⁻¹ | kon (human serum albumin [4]): 57700 M⁻¹ s⁻¹

B12: CA645 gL28gH5 Fab (Fab, V domains shown)
VH: EVQLLESGGGLVQPGGSLRLSCAVSGIDLSNYAINWVRQAPGKGLEWIGIIWASGTTFYATWAKGRFTISRDNSKNTVYLQMNSLRAEDTAVYYCARTVPGYSTAPYFDLWGQGTLVTVSS
VL: DIQMTQSPSSVSASVGDRVTITCQSSPSVWSNFLSWYQQKPGKAPKLLIYEASKLTSGVPSRFSGSGLGTDFTLTISSLQPEDFATYYCGGGYSSISDTTFGGGTKVEIK
notes: as for B3
Kd (human serum albumin [4]): 1.85 nM | koff (human serum albumin [4]): 0.000109 s⁻¹ | kon (human serum albumin [4]): 59000 M⁻¹ s⁻¹

B13: CA645 gL26gH5 Fab (Fab, V domains shown)
VH: EVQLLESGGGLVQPGGSLRLSCAVSGIDLSNYAINWVRQAPGKGLEWIGIIWASGTTFYATWAKGRFTISRDNSKNTVYLQMNSLRAEDTAVYYCARTVPGYSTAPYFDLWGQGTLVTVSS
VL: DIQMTQSPSSVSASVGDRVTITCQSSPSVWYNFLSWYQQKPGKAPKLLIYEASKLTSGVPSRFSGSGSGTDFTLTISSLQPEDFATYYCGGGYSSISDTTFGGGTKVEIK
notes: as for B3
Kd (human serum albumin [8]): 4.13 nM | koff (human serum albumin [8]): 0.000248 s⁻¹ | kon (human serum albumin [8]): 60100 M⁻¹ s⁻¹

B15: CA645 gL11gH5 Fab (Fab, V domains shown)
VH: EVQLLESGGGLVQPGGSLRLSCAVSGIDLSNYAINWVRQAPGKGLEWIGIIWASGTTFYATWAKGRFTISRDNSKNTVYLQMNSLRAEDTAVYYCARTVPGYSTAPYFDLWGQGTLVTVSS
VL: DIQMTQSPSSVSASVGDRVTITCQSSPNVWSNFLSWYQQKPGKAPKLLIYEASKLTSGVPSRFSGSGSGTDFTLTISSLQPEDFATYYCGGGYSSISDTTFGGGTKVEIK
notes: as for B3
Kd (human serum albumin [4]): 4.42 nM | koff (human serum albumin [4]): 0.000249 s⁻¹ | kon (human serum albumin [4]): 56400 M⁻¹ s⁻¹

The remaining lines, values ahead:

Kd (mouse serum albumin [1]): 2.6 nM | Kd (human serum albumin [2]): 0.31 nM
B1: CA645 recombinant rabbit Fab (Fab, V domains shown)
VH: QSLEESGGRLVTPGTPLTLTCTVSGIDLSNYAINWVRQAPGKGLEWIGIIWASGTTFYATWAKGRFTISRPSTTVDLEMTSLTTADTATYFCARTVPGYSTAPYFDLWGPGTLVTVSS
VL: AAVLTQTPSPVSAAVGGTVTINCQSSPSVWSNFLSWYQQKPGQPPKLLIYEASKLTSGVPSRFKGSGSGTQFTLTISDVQCGDAATYYCGGGYSSISDTTFGGGTKVVVK
notes: Fab with rabbit heavy CH1 and rabbit light chain constant region

fold difference of binding level to RSA against HSA (rat serum albumin [3]): ≤ 5 fold
B2: CA645 rabbit antibody secreted in B cell supernatant (antibody, V domains shown)
VH: QSLEESGGRLVTPGTPLTLTCTVSGIDLSNYAINWVRQAPGKGLEWIGIIWASGTTFYATWAKGRFTISRPSTTVDLEMTSLTTADTATYFCARTVPGYSTAPYFDLWGPGTLVTVSS
VL: AAVLTQTPSPVSAAVGGTVTINCQSSPSVWSNFLSWYQQKPGQPPKLLIYEASKLTSGVPSRFKGSGSGTQFTLTISDVQCGDAATYYCGGGYSSISDTTFGGGTKVVVK
notes: Rabbit IgG secreted by cultured B cells

Kd (mouse serum albumin [5]): 2.9 nM | Kd (human serum albumin [6]): 0.82 nM | Kd (rat serum albumin [7]): 7.9 nM
B4: CA645 humanized IgG1 (conservative graft gL1gH1) (antibody, V domains shown)
VH: EVQLLESGGGLVQPGGSLRLSCAVSGIDLSNYAINWVRQAPGKGLEWIGIIWASGTTFYATWAKGRFTISRDSTTVYLQMNSLRAEDTAVYYCARTVPGYSTAPYFDLWGQGTLVTVSS
VL: DIVMTQSPSSVSASVGDRVTITCQSSPSVWSNFLSWYQQKPGKAPKLLIYEASKLTSGVPSRFKGSGSGTDFTLTISSLQPEDFATYYCGGGYSSISDTTFGGGTKVEIK
notes: Human IgG1, full human gamma1 constant region, human kappa constant region (Km3 allotype); also called CA645 gL1gH1

Kd (human serum albumin [4]): 2.44 nM | koff (human serum albumin [4]): 0.000143 s⁻¹ | kon (human serum albumin [4]): 58600 M⁻¹ s⁻¹
B6: CA645 gL32gH5 Fab (Fab, V domains shown)
VH: EVQLLESGGGLVQPGGSLRLSCAVSGIDLSNYAINWVRQAPGKGLEWIGIIWASGTTFYATWAKGRFTISRDNSKNTVYLQMNSLRAEDTAVYYCARTVPGYSTAPYFDLWGQGTLVTVSS
VL: DIQMTQSPSSVSASVGDRVTITCQSSPSVWSNFLSWYQQKPGKAPKLLIYEASKLTSGVPSRFSGSGQGTDFTLTISSLQPEDFATYYCGGGYSSISDTTFGGGTKVEIK
notes: as for B3

Kd (human serum albumin [4]): 2.49 nM | koff (human serum albumin [4]): 0.000142 s⁻¹ | kon (human serum albumin [4]): 57200 M⁻¹ s⁻¹
B8: CA645 gL31gH5 Fab (Fab, V domains shown)
VH: EVQLLESGGGLVQPGGSLRLSCAVSGIDLSNYAINWVRQAPGKGLEWIGIIWASGTTFYATWAKGRFTISRDNSKNTVYLQMNSLRAEDTAVYYCARTVPGYSTAPYFDLWGQGTLVTVSS
VL: DIQMTQSPSSVSASVGDRVTITCQSSPSVWSNFLSWYQQKPGKAPKLLIYEASKLTSGVPSRFSGSGTGTDFTLTISSLQPEDFATYYCGGGYSSISDTTFGGGTKVEIK
notes: as for B3

Kd (human serum albumin [4]): 3.32 nM | koff (human serum albumin [4]): 0.000179 s⁻¹ | kon (human serum albumin [4]): 54000 M⁻¹ s⁻¹
B9: CA645 gL33gH5 Fab (Fab, V domains shown)
VH: EVQLLESGGGLVQPGGSLRLSCAVSGIDLSNYAINWVRQAPGKGLEWIGIIWASGTTFYATWAKGRFTISRDNSKNTVYLQMNSLRAEDTAVYYCARTVPGYSTAPYFDLWGQGTLVTVSS
VL: DIQMTQSPSSVSASVGDRVTITCQSSPSVWSNFLSWYQQKPGKAPKLLIYEASKLTSGVPSRFSGSGEGTDFTLTISSLQPEDFATYYCGGGYSSISDTTFGGGTKVEIK
notes: as for B3

Kd (human serum albumin [4]): 1.61 nM | koff (human serum albumin [4]): 9.4e-05 s⁻¹ | kon (human serum albumin [4]): 58400 M⁻¹ s⁻¹
B14: CA645 gL30gH5 Fab (Fab, V domains shown)
VH: EVQLLESGGGLVQPGGSLRLSCAVSGIDLSNYAINWVRQAPGKGLEWIGIIWASGTTFYATWAKGRFTISRDNSKNTVYLQMNSLRAEDTAVYYCARTVPGYSTAPYFDLWGQGTLVTVSS
VL: DIQMTQSPSSVSASVGDRVTITCQSSPSVWSNFLSWYQQKPGKAPKLLIYEASKLTSGVPSRFSGSGIGTDFTLTISSLQPEDFATYYCGGGYSSISDTTFGGGTKVEIK
notes: as for B3
